Measurements published in US20250026813A1 (published 2025).

B1: YANG-1301 (antibody, V domains shown)
VH: QVQLVESGGGVVQPGRSLRLSCAASGFTFSSYGMHWVRQAPGKGLEWVAVIWYDGSNKFYADSVKGRFTISRDNSKNTLYLQMNSLKAEDTAVYYCARDTWIGESDTSWLDPWGQGTLVTVSS
VL: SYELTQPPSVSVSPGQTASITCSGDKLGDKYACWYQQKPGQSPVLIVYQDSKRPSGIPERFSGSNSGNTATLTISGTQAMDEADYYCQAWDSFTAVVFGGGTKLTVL
B2: YANG-1403 (antibody, V domains shown)
VH: QVQLVESGGGVVQPGRSLRLSCAASGFTFSNYGMHWVRQAPGKGLEWVAVIWYDGSNKYYADSVKGRFTISRDNSKNTLYLQMNSLRAEDTAVYFCVRETVTDGMDVWGQGTTVTVSL
VL: NIQMTQSPSAMSASVGDRVTITCRARQDISNYLAWFQQKPGKVPKHLIYAASSLLSGVPSRFSGSGSGTEFTLTISSLQPEDFATYYCLHHNGYPWTFGQGTKVEIK
B3: YANG-2106 (antibody, V domains shown)
VH: QVQVVESGGGVVQPGRSLRLSCSASGFTFSTYGMHWVRQAPGKGLEWVAVIWYDGSNKYYADSVKGRFIISRDNSKNTLYLQMSSLRPDDTAVYYCVREGVADGMGVWGQGTTVTVSS
VL: NIQMTQSPSAMSASVGDRVTITCRARQDISTYLAWFQQKPGKVPKHLIYAASTLLSGVPSRFGGSGSGTEFTLTITSLQPEDFATYYCLHHNNYPWTFGQGTKVEIK
B4: YANG-1305 (antibody, V domains shown)
VH: QVQLVESGGGVVQPGKSLRLSCAASGFAFSSFGMHWVRQAPGTGLEWLAIISFEGTKKYYADSMKGRITISRDNSKNTLYLQMNSLRAEDTAVYYCAADYGDYDDYYYGVHVWGQGTTVTVSS
VL: DIQMTQSPSSLSASVGDRVTITCRASQGIANYLAWYQQKPGKVPKLLIYATSTLQSGVPSRFSGSGSGTDFTLTISSLQPEDVAIYYCQKYDSAPFTFGPGTKVDFK
B5: YANG-2111 (antibody, V domains shown)
VH: GVQLVESGGGLVQPGRSLRLSCAASGFTFDDYALHWVRQVPGKGLEWVSSISWNSDDLGYADSVEGRFTISRDNAKNSLYLQMSSLRTEDTALYYCVKDTRAHYDILAGYRGLDSWGQGTLVTVSS
VL: DIVMTQSPLSLPVTPGEPASISCRSTQSLLHSNGYNFLDWYLQKPGQSPQLLIYLGSNRASGVPDRFSGSGSGTDFSLKISRVEAEDIGIYYCIQGLQTPITFGQGTRLEIK
B6: YANG-1302 (antibody, V domains shown)
VH: QVQLVESGGGAVQPGRSLRLSCRASGFTFSSFGMNWVRQVPGKGLVWVAGIWYDGRNKYYADSVKGRFTISRENSKNMLYLQMNSLRAEDTAVYYCARDQDSGFDGNWFGPWGQGTMVTVSS
VL: SYELTQPPSMSVSPGQTASITCSGDNLGDKYVCWYQQRPGQSPVMVIFQDSTRPSGIPERFSGSNSGNTATLTISGTQAMDEADYYCQAWDSNTAVFGGGTKLTVL
B7: YANG-2101 (antibody, V domains shown)
VH: EVQLVESGGGLVQPGGSLRLSCAASGFTFSLYDMHWVRQATGKGLEWVAGVGIAGDTIYPDSVKGRFTISRENAKNSFFLQMNRLRAGDTAVYYCVRGGTGTTFFDYWGQGVLVTVSS
VL: DIQMTQSPSSLSASVGDRVTVTCRASQDITNYLAWFQQKPGKAPKSLIYSASSLQGGTPSKFSGSGSGTEFTLTISSLQPEDFATYYCQQYNSFPLTFGGGTKVEIK
B8: YANG-1402 (antibody, V domains shown)
VH: EVQLVESGGGLIQPGGSLRLSCAASGVTVSSNYMNWVRQAPGKGLEWVSVIYSGGSTYYADSVKGRFTISRDNSKNTLYLQMNSLRVEDTAVYYCARDIGDYGMDVWGQGTTVTVSS
VL: DIQLTQAPSFLSASVGDRLTITCWASQGISSYLAWYQQKPGKAPKILIYAASTLQSGVPSRFSGSGSGTEFTLTISSLQPEDFATYYCQQLNSYPLIFGGGTKVEIK
B9: YANG-2107 (antibody, V domains shown)
VH: QVQLQESGPGLVKPSGTLSLTCAVSGGSIRSSNWWIWVRQSPGKGLEWIGEIYHGGNTNYNPSLKSRVTLSVDKSKNQFSLKLSSVTAADTAVYYCARALYDIGGVFDIWGQGTMVTVSS
VL: QSALTQPASVSGSPGQSISISCTGTSSDIGGYNYVSWYQQHPGKAPKLMIYDVSERPSGVSNRFSGSKSGNTASLTISGLQAEDEGDYYCCSYAANSNVVFGGGTKLSVL
B10: YANG-2108 (antibody, V domains shown)
VH: QVQLQESGPGQVKPSGTLSLTCAVSGGSIRSSNWWIWVRQPPGKGLEWIGEIYHGGNTNYSPSLKSRVSISVDKSKNHFSLNLTSVTAADTAVYYCARALYDVGGVFDIWGQGTMVTVSS
VL: QSALTQPASVSGSPGQSITISCTGSSSDVGGYNYVSWYQQHPGKAPKLMIYDVSERPSGVSNRFSGSKSGNTASLTISGLQAEDEGDYYCCSYAANSNVVFGGGTKLSVL
B11: YANG-2201 (antibody, V domains shown)
VH: QEQLVESGGGVVQPGMSLRLSCAASGFTFSNYGMHWVRQSPGKGLEWVTFISYDGNNEYYVDSVKGRFTISRDNSKNTLFLQMNSLRAEDAAVYYCAKDRALNLYYFDSWGPGTLVTVSS
VL: DIVMTQPPLSLPVTPGEPASISCRSSQSLLHNNAYNHLNWYLQKPGQSPQFLIYLGSNRASGVPDRFSGSGSGTDFTLKISRVEAEDVGVYYCMQSLQIPITFGQGTRLEIK
B12: YANG-2102 (antibody, V domains shown)
VH: EVKLVESGGGLVQRGGSLRLSCAASGFTFSSHAMYWVRQIPGKGLEWVAGIGVAGDTFYPDSVKGRFTISRENANNSLSLQMDSLRTGDTAIYYCVRDGYSGSYPYHYYGMDVWGQGITVVVSS
VL: DIQLTQSPSSLSASVGDSVTITCRASQGIDTYLAWFQQKPGKAPKSLIYVASSLQSGVPSKFSGSGSGTDFTLTISSLLPEDFATYYCQQYKSYPWTFGQGTKVEIK
B13: YANG-2104 (antibody, V domains shown)
VH: EVKLVESGGGLVQPGGSLRLSCAASGFTFSSHAMYWVRQSPGKGLEWVSGIGVAGDTFYVDSVKGRFTISRENARNSLSLQMNSLRAGDTAVYYCARDGYSGTHPYHFYGMDVWGQGITVVVSS
VL: DIQMTQSPSSLSASVGDSVTITCRASQDINTYLAWFQQKPGKAPKSLIYVASSLQSGVPSKFSGSGSGTDFTLTISSLLPEDFATYYCQQYKSYPWTFGQGTKVEIK
B14: YANG-2112 (antibody, V domains shown)
VH: QVQLVQSGAEVKKPGASVKVSCKVSGFTLTHLSIHWVRQAPGRGLEWMGGFDPVDGQTVYAQNFQGRVTMTEDTSTDTANMDLNNLKSEDTAVYYCATGVVVPAAPYYYSSGMDVWGQGTTVTVSS
VL: QSVLTQPPSTSGTPGQRVTISCSGSSSNIAKNYVYWYQQLPGTAPKLLIYRTNQRPSGVPDRFSGSRSGTSASLAISGLRSEDEATYYCATWDDTLSVIFGGGTNLTVL
B15: YANG-2109 (antibody, V domains shown)
VH: QVQLVQSGAEVKKPGSSVKVSCKASGGTFSGYTISWIRQAPGQGLEWMGGIIPSFGSLNYGQKFQDRVSITTDELKSTVYMELSSLNSEDTAIYYCTRESITSGYYYGMAVWGQGTTVTVSS
VL: DIQMTQSPSSLSASVGDRVTITCRASQGIRDDLGWFQQKPGKAPKRLISAASSLQSGVPSRFSGSGSGTEFTLTISSLQPEDFATYYCLQHNSYPLTFGGGTKVEIR
B16: YANG-2103 (antibody, V domains shown)
VH: EAQLVESGGGLIQSGGSLRLSCIASGLTVNSNYMNWVRQAPGKGLEWVSVIYSGGTTFYADSVKGRFTISRDNSKNTLYLQMTSLRAEDTAVYYCAREGYGMDVWGQGTTVTVSS
VL: SYVLTQPPSVSVAPGKTARINCGGNNFGSKSVHWYQQKPGQAPVLVIYYDSDRPSGIPERFSGSNSGNTATLTISRVEAGDEADYYCQVWDNSSDHFVFGAGTKVTVL
B17: YANG-1303 (antibody, V domains shown)
VH: QVQLVQSGTEMKEPGASVKVSCKASGYTFTNYGITWVRQAPGQGLEWMGWLNTNNGDTNYAQKLQGRVTMTTDTSTSTAYMELRSLRSDDTAVYYCARDSVTTYDYWGQGTLVTVSS
VL: SYELTQPPSVSVSPGQTARITCSGDALPKKYAYWFQQKSAQAPVLVIYEDSKRPSGIPERFSGSSSGTMATLTINGAQVEDEAAYYCYSLDSSGNHWVFGGGTKLTVL
B18: YANG-1304 (antibody, V domains shown)
VH: QVQLQQWGAGLVKTSETLSLTCAVYGGSFNDHYWSWIRQPPGKGLEWIGEINHSGSTNYNPSLKSRVTMSLDTSKNQFSLKLRSLTAADTAMYYCAIEGIWGQGAMVTVSS
VL: SYELTQPPSVSVSPGQTARITCSGDALPIKYVHWYQQKSGQAPVLVIYEDSKRPSGIPERISGSSSGTMATLTMSGAQVEDEADYYCYSTDSSGNHWVFGGGTKLTVL
B19: YANG-1401 (antibody, V domains shown)
VH: QVHLQESGPGLVKPSGTLSLTCAVSGGSFSQINWWSWVRQSPGKGLEWIGEIYHSGSTNYNPSLKSRVTMSVDKSKNQFSLALNSVTAADTAVYYCARGYYGDNWFDSWGQGTLVTVSS
VL: DIQMTQSPSSLSASIGDRVTITCRASQGISNWLVWYQQKPEKAPKSLIYAASSLQSGVPSRFSGSGSGTDFTLTISSLHPEDFATYYCQQYSDYPLTFGGGTKVEIK
B20: YANG-2110 (antibody, V domains shown)
VH: EVQLVESGGGLIQPGGSLRLSCAASGFIVSRNYMSWVRQAPGKGLDWVSVIYSGGSTYYADSVKGRFTISRDNSKNTLYLQMNSLRAEDTAVYYCARSIAVAGEGLDSWGQGTLVTVSS
VL: EIVMTQSPATLSLSPGDRATLSCRASQSVSNIFISWYQQKPGQAPRLLIYGASIRATDIPARFSGSGSGTDFTLTISSLQPEDFAIYFCQQDYNLPLTFGGGTKVEIK
B21: YANG-2105 (antibody, V domains shown)
VH: EVQLVESGGGLIQPGGSLRLSCAASGLTVSSNYMNWVRQAPGKGLEWVSVIYSGGSTFYTDSVKGRFTISRDNSKNTLNLQMNSLRAEDTAVYYCARDLGIRGGMDVWGQGTTVTVSS
VL: DIQLIQSPSFLSASVGDRVTITCWASQGISSYLAWYQQKPGKAPNLLIYAASTLQSGVPSRFSGSGSGTEFTLTISSLQPEDFATYYCQQLDGSLTFGGGTKVEIK

These binders were tested against SARS-CoV-2 spike protein bearing furin mutation and truncation in retention sequence (on pseudoviral envelope) (SARS-CoV-2, UniProt P0DTC2 14-1273) (assay: cell-based or functional assay).

B1 and B4 are within 1.5-fold of each other in “PV neutralisation IC50” value: 0.52 nM for the first, 0.42 nM for the second.

Going from B5 to B6, the “PV neutralisation IC50” value falls from 1.33 nM to 0.23 nM (5.8-fold).

B9 and B10 are within 1.5-fold of each other in “PV neutralisation IC50” value: 0.3 nM for the first, 0.27 nM for the second.

B14 and B15 are within 1.5-fold of each other in “PV neutralisation IC50” value: 0.65 nM for the first, 0.5 nM for the second.

B19 was tested, and the “PV neutralisation IC50” value was 0.53 nM.

Compared with B1, B2 is higher in “PV neutralization % (Ab 1 ug/mL)” value: 60.4% for the first, 99.3% for the second.

First: B3
Second: B4
The “PV neutralization % (Ab 1 ug/mL)” value of the first is higher: 93.3% for the first, 60.5% for the second.

Compared with B5, B6 is lower in “PV neutralization % (Ab 1 ug/mL)” value: 86.8% for the first, 60.3% for the second.

Going from B7 to B8, the “PV neutralization % (Ab 1 ug/mL)” value falls from 100% to 94.5%.

First: B9
Second: B10
The “PV neutralization % (Ab 1 ug/mL)” value of the first is lower: 61.2% for the first, 81.8% for the second.

First: B11
Second: B12
The “PV neutralization % (Ab 1 ug/mL)” value of the first is lower: 35.2% for the first, 99.4% for the second.

Going from B13 to B14, the “PV neutralization % (Ab 1 ug/mL)” value falls from 99.3% to 88.6%.

First: B15
Second: B16
The “PV neutralization % (Ab 1 ug/mL)” value of the first is lower: 95% for the first, 97.7% for the second.

First: B17
Second: B18
The “PV neutralization % (Ab 1 ug/mL)” value of the first is higher: 46.3% for the first, 41.5% for the second.

First: B19
Second: B20
The “PV neutralization % (Ab 1 ug/mL)” value of the first is lower: 91.6% for the first, 99.9% for the second.

For B21, the “PV neutralization % (Ab 1 ug/mL)” value was 99.6%.
